This note sets out measurements from the nanobody polyreactivity screen of Harvey et al. (2022).

The series can be described thus: yeast display, Sf9 membrane polyspecificity reagent, FACS + sequencing; frameworks hold sequencing errors. The procedure, abridged: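 Genes from sorted yeast were amplified by colony PCR, read by MiSeq 2 × 250 sequencing and filtered on CDR length. These cells carried a synthetic nanobody library in Saccharomyces cerevisiae BJ5465 and were sorted by FACS into low and high (top ~1%) gates on anti-HA and streptavidin fluorescence. Polyreactivity is labelled according to the gate of origin.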
Regarding “QVQLVESGAGLVHAGGSLRLSCAASGRIFNYYAMGWYRQAPGKESELVAGINWSGTRTYYADSVKGRFTISRDNAKITVYLQMNSLKPEDTAVYYCNAGRTWRAFTGDEYWVQGTQVTVSS”, the “polyreactivity (PSR sort gate)” value is “high polyreactivity”.

With “QVQLVESGAGLVKAGGSLRLSCASSGRILDFYDMGWYRQAPGKERELVAAITSGTSTYYADSVKGRFTISRDNAKYTVYLQMNSLKPEDTAVYYCAAAHVPVGQYVYWYDYWGQGTQVTVSS”, the “polyreactivity (PSR sort gate)” value is listed as “low polyreactivity”.

Consider “QVQLVESGAGLVQAAGSLRLICASSGFILLDKAMGWYRQAPGKEREFVASINISGARTFYADSVKGRFTISRDTAKNTVYLQMNSLKPEDTAVYYCAKEPGWGRRSTTAYDYWGQGTQVTVSS”, for which the “polyreactivity (PSR sort gate)” value was “low polyreactivity”.

In the case of “QVQLVESGAGLVQAAGSLRLSCAASGRTFSRNAMGWYRQAPGQERELVARIRSGGSTYYADSVKGRFTISRDNAKNTVYLQMNSLKPDETAVFYLAADRYGYQFDYWGQGTQVTVSS”, the “polyreactivity (PSR sort gate)” value is on record as “high polyreactivity”.

Take “QVQLVESGAGLVQAGGSLRISCAASGFIFNEYAMGWYRQAPGKERELVAAISSGGSTYYADSVKGRFTISRDNAKNTVYLLINSLKPEDTAVYYCNALRRSQPWKYDYWGPGTQVTVSS”: the “polyreactivity (PSR sort gate)” value is listed as “low polyreactivity”.

With “QVQLVESGAGLVQAGGSLRISCAASGFTFAYYAMGWYRQAPGKEREFVAAITKGGGSTNYADSVKGRFTISRYNAKNTVYLQMNSLNPEDTAVYYCNADYFVWYIGRVFSRYGYWGQGTQVTVSS”, the “polyreactivity (PSR sort gate)” value is “low polyreactivity”.

With “QVQLVESGAGLVQAGGSLRISCAASGITFYRNAMGWYRQAPGKERELVAAITWNGGRTYYADSVKGRFTISRDNAKNTVYLQMNSLNPEDTAVYYCAKRYGSTQSRYDFWGPGTQVTVSS”, the “polyreactivity (PSR sort gate)” value was “high polyreactivity”.

For the sequence “QVQLVESGAGLVQAGGSLRISCAASGRIFYVYAMGWYRQAPGKEREFVASISWSGGSTYYADSVKGRFTISRDNANNTVLLQMNSLKPADTAVYYCNARAFTQRYDYWGQGTQVTVSS”, the “polyreactivity (PSR sort gate)” value is “low polyreactivity”.

As for “QVQLVESGAGLVQAGGSLRISCAASGSIFTNAMGWYRQAPGKERELVAAISSSGGSTYYADSVKGRFTISRDNANNTVYLQMNSLKPEDTAVYYCAADHYGGRDYWGQGTQVTVSS”, the “polyreactivity (PSR sort gate)” value is reported as “low polyreactivity”.

Consider “QVQLVESGAGLVQAGGSLRISCAASVITFIPYAMGWYRQAPGKERELLASISDGGGTNYADSVKGRFTISRDNAKNTVYLQMNSLKTEDTAVYYCATDASTYAYYGGYYWGHGTQVTVSS”, for which the “polyreactivity (PSR sort gate)” value is “low polyreactivity”.

Consider “QVQLVESGAGLVQAGGSLRLICAASGRTFYPNAMGWYRQAPGKERELVAAITYSGTRTYYADSVKGRFTISRDNAKNTVYLQMNSLKPEDTAVYYCAAVVGKIGFNYWGQGTQVTVSS”, for which the “polyreactivity (PSR sort gate)” value was “high polyreactivity”.

Turning to “QVQLVESGAGLVQAGGSLRLSCAASGFIFLAYTMGWSRQGPAKERELVAAISTSGGSTYYADSVKGRFTISRDKAKNTVYLEMNSLKPEDTGVYYCAADYSYWRGYDSWGQGTQVTVSS”, the “polyreactivity (PSR sort gate)” value is on record as “high polyreactivity”.

Regarding “QVQLVESGAGLVQAGGSLRLSCAASGFIFYIYAMGWYRQAPGKEREFVAVISSSGGITYYADSVKGRFTISRDNAKNTFYLQMNSLKPEDTAVYYCARDTEGKYVGYGRGGYWGQGTQVTVSS”, the “polyreactivity (PSR sort gate)” value is given as “low polyreactivity”.

Regarding “QVQLVESGAGLVQAGGSLRLSCAASGFTFPVYAMGWNRQAPGKERELVAAISWSGGGTYYADSVKGRFTISRDIAKNTVYLQMNSLNPEDTAVHYCAARWYYYPLMYDYWGQGTQVTVSS”, the “polyreactivity (PSR sort gate)” value is given as “low polyreactivity”.

“QVQLVESGAGLVQAGGSLRLSCAASGGTFWKYAMGWYRQAPGKESELVAAITWSGSSTYYADSVKGRFTISRDNAKNTVFLLMKSLKPEDTAVYYCARYHVGPSYRYGYWGQGTQVTVSS”: the “polyreactivity (PSR sort gate)” value is “high polyreactivity”.

Turning to “QVQLVESGAGLVQAGGSLRLSCAASGIIFPFYAMGWYRQAPGKEMELVAAITSDGNTNYADSVKGRFTFSRDNAKNTVYLQMNSLKPVDTAVYYCNAETQYAVLSWHSTRHDYWGQGTQVTLSS”, the “polyreactivity (PSR sort gate)” value was “low polyreactivity”.

For the sequence “QVQLVESGAGLVQAGGSLRLSCAASGRIFHWYAMGWYRQAPGKERELVATANTSYADSVKGRFTISRDNAKNTVYLQMNSLKPEDTAVYYCATVGPRGRSLGDYWGQVTQVTVSS”, the “polyreactivity (PSR sort gate)” value was “low polyreactivity”.

On to “QVQLVESGAGLVQAGGSLRLSCAASGRILIIYAMGWYRQAPGKERELVARITYTGGRTYYADSVKGRFTISRDNAKNTVYRQMNSLKPDDTAVYYCATDWSRSDSYSHYDSWVQGTQVTVSS”, for which the “polyreactivity (PSR sort gate)” value was “low polyreactivity”.

Take “QVQLVESGAGLVQAGGSLRLSCAASGRNFQYYAMVWYRQAPGKERELVAAISSGGGTYYADSVKGRFTISRDNAKNTVYLQMNSLKPEDTAVYYCAARYVYHRGFDYWGQGTQVTVSS”: the “polyreactivity (PSR sort gate)” value was “high polyreactivity”.

With “QVQLVESGAGLVQAGGSLRLSCAASGRTFNFYTMGWYRQAPGKERELVAAIDASGGRTYYADSVKGRFTISRDNAKNTVYLQMNSLKPEDTAVYYCAKYPRYSYVGYGYWGQGTQVTVSS”, the “polyreactivity (PSR sort gate)” value is recorded as “high polyreactivity”.

Take “QVQLVESGAGLVQAGGSLRLSCAASGSIFGFYAMGWYRQAPGKERELVASISSSGDSTYYADSVKGRFTISRDNAKYTVYLPMNSLKPEDTAVYYCAAVVYDIYGYEFDYWGLGTQVTVSS”: the “polyreactivity (PSR sort gate)” value is “low polyreactivity”.

“QVQLVESGAGLVQAGGSLRLSCAASGSIFGPNAMGWYRQAPGKERELVAAISWSGASTYYADSVKGRFTISRDNAMNTVYLQMNSLKPEDTAVYYCAADYYGVSGSGYGYWGQGTQVTVSS”: the “polyreactivity (PSR sort gate)” value is given as “low polyreactivity”.

For the sequence “QVQLVESGAGLVQAGGSLRLSCAASGSIFKYNTMGWYRQAPGKERELVATISGGGRTYYADSVKGRFTISRDNAKNTVYLQMNSLKPEDTAVYYCAARKRGTFTYDYWGQGTQVTVSS”, the “polyreactivity (PSR sort gate)” value was “high polyreactivity”.

Regarding “QVQLVESGAGLVQAGGSLRLSCAASGSIFSYYVMGWYRQAPGKERELVAAISYSGGRTYYADSVKGSFTISRDNAKYTVYLQMNSLKPEDTAVYFCAASRRVGEVSYYYWGQGTQVTVSS”, the “polyreactivity (PSR sort gate)” value is listed as “high polyreactivity”.

Take “QVQLVESGAGLVQAGGSLRLSCAASGSIFVQYAMGWSRQAPRNERELVAGISSIGGSTYYADSVKGRFTLSRDNSKNSVYLQMNSLKPEDTAVYYCAKRWRSSYRIGHDYWRQGTQVTVSS”: the “polyreactivity (PSR sort gate)” value is recorded as “low polyreactivity”.

Consider “QVQLVESGAGLVQAGGSLRLSCAASGSIFWWNALGWYRQAPGKQRELVAAINWSTGRTYYADSVKGRFTISRDNAKNTVYLQMISLKPEDTAVYYCAACFVGDLGYEYWGQGTQVTVSS”, for which the “polyreactivity (PSR sort gate)” value is on record as “low polyreactivity”.

“QVQLVESGAGLVQAGGSLRLSCAASGSILTAYAMGWYRQAPVKERELVAAISRGDITKYADSVKGRFTISRDNAKNTVYLQMNSLQPEDTAVYYCAARVPRYSDSTRGRADYYWGQVTQVTVSS”: the “polyreactivity (PSR sort gate)” value is on record as “high polyreactivity”.

With “QVQLVESGAGLVQAGGSLRLSCAASGSTFSRYAMGWYRQAPGKERELVAAISRRGGSTYYSDSVKGRFTISRDNSKNTVYLQKISLKPEDTAVYYCAADPQPSSDRGTYDYWGQGTQVSVSS”, the “polyreactivity (PSR sort gate)” value is listed as “high polyreactivity”.

With “QVQLVESGAGLVQAGGSLRLSCAASGSTLVFYTMGWYRQAPGKERELVAAISYSGGRTYYADSVKGRFTISRDNAKNTVYLQMNSLKPEDTAVYYCAAVGRSYNRISQYDYWGQGTQVTVSS”, the “polyreactivity (PSR sort gate)” value is “high polyreactivity”.

“QVQLVESGAGLVQAGGSLRLSCAASGTIFSGNAMGWYRQAPGKESELVAAISRSGGSTYYADSVKGRFTISRDNAKNTVSLQKNSLKPEDTAVYYCAAYRTHGPPRAIRFDYWGQGSQVTVSS”: the “polyreactivity (PSR sort gate)” value is recorded as “high polyreactivity”.
